According to paper PMC9098913, “In vitro reconstitution of Escherichia coli divisome activation” (Nature Communications, 2022):
Values joined by “and” are separate entries in the source; they are usually repeats but may differ in a detail not shown here. Identical values can stand only once. Like-named read-outs stand apart in the source and are kept apart here.

How the values were obtained:
FtsZ [1] = system: FtsZ
Experimental: Additionally, the reaction chamber contained 4 mM ATP and 4 mM GTP, as well as a scavenging system to minimize photobleaching effects: 30 mM d-glucose, 0.050 mg ml^−1 Glucose Oxidase, 0.016 mg ml^−1 Catalase, 1 mM DTT and 1 mM Trolox. Prior addition of all components a corresponding buffer volume was removed from the chamber to obtain a total reaction volume of 100 µl. The dynamic protein pattern was monitored by time-lapse TIRF microscopy at one frame per 2 s and 50 ms exposure time.

FtsZ [2] = conditions: for Pearson correlation coefficient (PCC) FtsA/FtsZ: 1.25 µM FtsZ
Source text: Time-lapse videos were first intensity-corrected and contrast-enhanced to avoid bleaching effects and simplify subsequent analysis. To remove contributions of X–Y drift, the videos were processed with the Linear Stack Alignment with SIFT plugin. […] Subsequently, regions of interest (ROIs) in the center of the stacks were chosen for colocalization analysis. The Pearson’s correlation coefficient (PCC) was quantified with the Image CorrelationJ 1o plugin. To extract information about the relative ratio of FtsZ/FtsA molecules (slope of linear regression), we also used the Image CorrelationJ 1o plugin. As an output, the plugin provides a scatterplot of FtsZ vs FtsA intensities, to which we fitted a linear slope y=k⋅x+d , where k is the slope and d the offset. The slope was used as an estimate for the ratio of FtsA molecules below FtsZ filaments[42].

[3] = Single-molecule diffusion coefficient of FtsA on the membrane; conditions: for Diffusion Coefficient: single-particle tracking, n = 3
Experimental: First, we studied the behaviour of single FtsA proteins on the membrane surface.
After 5 min of incubation, single molecule time lapses were acquired every 125, 250, 500, and 1000 and 2000 ms, with an exposure time of 50 ms. Subsequently, the bulk concentration of FtsA was increased to 0.2/0.4/0.8 µM and time lapses were repeated as described above.
Single molecules of FtsA or FtsZ were tracked using the TrackMate plugin from ImageJ[43]. To obtain the residence time of FtsZ and FtsA, we performed a residence time analysis as described before[40],[47]. Shortly, single molecules were imaged at different acquisition rates (0.1–2 s) and the lifetime of the molecules was extracted from each data set. To account for photobleaching effect, the obtained lifetimes were plotted against the acquisition rate. […] Furthermore, we extracted the diffusion coefficient of FtsA single molecules at increasing concentrations. For this, we filtered the obtained data, by considering only trajectories which are present on the membrane for more than 0.4 s. […] Subsequently, the diffusion coefficient of FtsA molecules was estimated by fitting an MSD curve to each individual trajectory.

FtsZ filaments = assay: Slope of linear regression FtsZ vs FtsA intensity (packing of FtsA below FtsZ filaments); type: biochemical, E. coli
Source text: While fluorescence microscopy cannot resolve molecular assemblies of these small dimensions, a higher packing density of FtsA R286W below FtsZ filaments could explain the enhanced colocalization with FtsZ. To test this hypothesis, we analysed the pixel-by-pixel relationship between the fluorescence intensities of FtsZ and FtsA in dual-colour fluorescence time-lapse movies. […] At low FtsA concentrations, we found the slopes for both proteins to be similar.

B1: FtsA R286W (protein)
chain: MIKATDRKLVVGLEIGTAKVAALVGEVLPDGMVNIIGVGSCPSRGMDKGGVNDLESVVKCVQRAIDQAELMADCQISSVYLALSGKHISCQNEIGMVPISEEEVTQEDVENVVHTAKSVRVRDEHRVLHVIPQEYAIDYQEGIKNPVGLSGVRMQAKVHLITCHNDMAKNIVKAVERCGLKVDQLIFAGLASSYSVLTEDERELGVCVVDIGGGTMDIAVYTGGALRHTKVIPYAGNVVTSDIAYAFGTPPSDAEAIKVRHGCALGSIVGKDESVEVPSVGGRPPWSLQRQTLAEVIEPRYTELLNLVNEEILQLQEKLRQQGVKHHLAAGIVLTGGAAQIEGLAACAQRVFHTQVRIGAPLNITGLTDYAQEPYYSTAVGLLHYGKESHLNGEAEVEKRVTASVGSWIKRLNSWLRKEF
modifications: Cy3 or Cy5 at the N-terminus in the labelled form (labelled CLEPTGG peptide conjugated to the 5xGly tag by sortagging); unlabelled protein also used; left off: TwinStrep-SUMO, N-terminal, cleaved | 5x
FtsZ fluorescence intensity compared to the wild-type protein (FtsZ [1]): increased
PCC FtsZ/FtsA (FtsZ [2]; 0.1µM FtsA, Exp. 2): 0.41
PCC FtsZ/FtsA (FtsZ [2]; 0.1µM FtsA, replicate 1 (row printed 'goo')): 0.73
PCC FtsZ/FtsA (FtsZ [2]; 0.2µM FtsA, Exp. 2): 0.77
PCC FtsZ/FtsA (FtsZ [2]; 0.2µM FtsA, replicate 1 (row printed 'goo')): 0.89
Pearson correlation coefficient (PCC) FtsA/FtsZ (FtsZ [2]; 0.4 µM FtsA, mean ± s.d., WT vs R286W p-value 1.28 × 10^−5): 0.84 ± 0.05
PCC FtsZ/FtsA (FtsZ [2]; 0.4µM FtsA, Exp. 2): 0.83
PCC FtsZ/FtsA (FtsZ [2]; 0.4µM FtsA, replicate 1 (row printed 'goo')): 0.89
PCC FtsZ/FtsA (FtsZ [2]; 0.8µM FtsA, Exp. 2): 0.83
PCC FtsZ/FtsA (FtsZ [2]; 0.8µM FtsA, replicate 1 (row printed 'goo')): 0.88
Pearson correlation coefficient (PCC) FtsA/FtsZ (FtsZ [2]; all concentrations tested (0.1–0.8 µM)): around 0.8
Single Molecule Diffusion Constant ([3]; 0.1 µM FtsA, Exp. 1): 0.4979 µm2/s
Single Molecule Diffusion Constant ([3]; 0.1µM FtsA, Exp. 2): 0.3931 µm2/s
Single Molecule Diffusion Constant ([3]; 0.1 µM FtsA, Exp. 3): 0.3496 µm2/s
Diffusion Coefficient ([3]; 0.1 µM FtsA): 0.42 ± 0.06 µm^2/s
Single Molecule Diffusion Constant ([3]; 0.2 µM FtsA, Exp. 1): 0.1893 µm2/s
Single Molecule Diffusion Constant ([3]; 0.2µM FtsA, Exp. 2): 0.1662 µm2/s
Single Molecule Diffusion Constant ([3]; 0.2 µM FtsA, Exp. 3): 0.2033 µm2/s
Single Molecule Diffusion Constant ([3]; 0.4 µM FtsA, Exp. 1): 0.1363 µm2/s
Single Molecule Diffusion Constant ([3]; 0.4µM FtsA, Exp. 2): 0.0718 µm2/s
Single Molecule Diffusion Constant ([3]; 0.4 µM FtsA, Exp. 3): 0.1951 µm2/s
Single Molecule Diffusion Constant ([3]; 0.8 µM FtsA, Exp. 1): 0.0600 µm2/s
Single Molecule Diffusion Constant ([3]; 0.8µM FtsA, Exp. 2): 0.0636 µm2/s
Single Molecule Diffusion Constant ([3]; 0.8 µM FtsA, Exp. 3): 0.0391 µm2/s
Single Molecule Diffusion Constant, mean ([3]; 0.8 µM FtsA, mean of Exp. 1-3, n = 3, Fig. 3b): 0.054 µm2/s and 0.0542 µm2/s
Diffusion Coefficient ([3]; 0.8 µM FtsA): 0.05 ± 0.01 µm^2/s
Slope of linear regression FtsZ vs FtsA (FtsZ filaments; 0.1 µM FtsA, mean): 0.43
Slope of linear regression, mean of single experiment (FtsZ filaments; 0.1µM, replicate column 1): 0.46
Slope of linear regression, mean of single experiment (FtsZ filaments; 0.1µM, replicate column 2): 0.49
Slope of linear regression, mean of single experiment (FtsZ filaments; 0.1µM, replicate column 3): 0.39
Slope of linear regression FtsZ vs FtsA (FtsZ filaments; 0.2 µM FtsA, mean): 0.60
Slope of linear regression, mean of single experiment (FtsZ filaments; 0.2µM, replicate column 1): 0.53
Slope of linear regression, mean of single experiment (FtsZ filaments; 0.2µM, replicate column 2): 0.81
Slope of linear regression, mean of single experiment (FtsZ filaments; 0.2µM, replicate column 3): 0.58
Slope of linear regression, mean of single experiment (FtsZ filaments; 0.4µM, replicate column 1): 0.63
Slope of linear regression FtsZ vs FtsA (FtsZ filaments; 0.8 µM FtsA, mean): 0.72
Slope of linear regression FtsZ vs FtsA (FtsZ filaments; above 0.2 µM, remained constant): ~ 0.7
